To fix the notation:
B5: Cpn20 co-chaperonin of A. thaliana (natural protein, UniProt O65282 51-253, looked up)
chain: AASVVAPKYTSIKPLGDRVLVKIKEAEEKTLGGILLPSTAQSKPQGGEVVAVGEGRTIGKNKIDITVPTGAQIIYSKYAGTEVEFNDVKHLILKEDDIVGILETEDIKDLKPLNDRVFIKVAEAEEKTAGGLLLTETTKEKPSIGTVIAVGPGSLDEEGKITPLPVSTGSTVLYSKYAGNDFKGKDGSNYIALRASDVMAILS
notes: Cpn20, A. thaliana chloroplast co-chaperonin of two Cpn10-like domains joined head-to-tail, At5g20720

In data set [1] the target is B5. In words: cell-based or functional assay.
The next data set has as its target T1, Cpn20 mutant G32A (A. thaliana, UniProt O65282 51-253, G32A).
T1 sequence (looked up): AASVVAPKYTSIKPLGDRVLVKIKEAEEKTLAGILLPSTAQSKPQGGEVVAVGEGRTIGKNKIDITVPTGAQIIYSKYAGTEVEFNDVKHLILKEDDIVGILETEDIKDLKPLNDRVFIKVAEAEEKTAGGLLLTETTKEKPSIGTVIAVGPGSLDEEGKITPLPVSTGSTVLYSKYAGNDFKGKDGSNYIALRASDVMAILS
Nature of the data set: cell-based or functional assay.

Data set [2] concerns the molecule itself. In words: cross-linking; 45 µM co-chaperonin with 1 mM DSS at room temperature, 50 mM Na-HEPES pH 7.5, 10 mM MgCl2, 100 mM KCl; time course; SDS gradient gel, Coomassie.
The next data set deals with T2, Cpn60β3 (A. thaliana, UniProt P21240 55-600).
T2 construct: Cpn60β3, A. thaliana chloroplast chaperonin β subunit, At1g55490
In words: SEC; reconstitution of 150 µM Cpn60α2 and 100 µM Cpn60β3 with 50 µM mt-cpn10, 5 mM ATP, 50 mM Tris-HCl pH 8, 300 mM NaCl, 10 mM MgCl2, 16 mM KCl, 2 mM DTT, 1 h 30°C; oligomers separated from monomers on Superdex 200 at room temperature. As to conditions: both partners purified.

Data set [3] concerns the molecule itself. Nature of the data set: native gel or EMSA; co-chaperonins at 100 µM (protomer) mixed at various ratios, 5 min at room temperature, 6% native acrylamide gel; no Cpn60 or ATP. For orientation: Mobility shift assays separate free from complexed probe on a gel.

T2 sequence (P21240 55-600): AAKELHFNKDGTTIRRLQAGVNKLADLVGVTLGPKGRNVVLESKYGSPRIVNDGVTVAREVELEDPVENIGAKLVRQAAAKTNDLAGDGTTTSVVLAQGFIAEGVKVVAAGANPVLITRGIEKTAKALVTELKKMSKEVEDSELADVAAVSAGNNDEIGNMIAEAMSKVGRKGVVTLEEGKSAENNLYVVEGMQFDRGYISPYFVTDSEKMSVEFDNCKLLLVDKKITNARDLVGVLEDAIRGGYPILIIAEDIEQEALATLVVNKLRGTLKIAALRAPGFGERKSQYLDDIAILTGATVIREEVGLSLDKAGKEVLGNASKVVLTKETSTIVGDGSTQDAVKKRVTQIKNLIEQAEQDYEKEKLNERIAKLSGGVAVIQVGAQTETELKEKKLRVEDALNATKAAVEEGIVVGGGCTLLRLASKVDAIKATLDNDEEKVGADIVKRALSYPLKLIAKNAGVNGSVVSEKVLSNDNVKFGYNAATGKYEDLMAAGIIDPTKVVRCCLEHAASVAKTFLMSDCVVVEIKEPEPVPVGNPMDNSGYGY

B1: Cpn10(1) co-chaperonin of A. thaliana, lacking the N-terminal chloroplast transit peptide (natural protein, UniProt Q9M1C2 43-138, looked up)
chain: STKWEPAKVVPQADRVLVRLEVLPEKSSGGVLLPKSAVKFERYLTGEVVSVGSEVGEVEPGKKVLFSDMSAYEVDFGTEDAKHCFCKESDLLAIVQ
notes: Cpn10(1), A. thaliana chloroplast co-chaperonin, At3g60210, without the transit peptide; Serine 43 chosen as the first amino acid; Cloned between XhoI and NdeI of pET22b+; source: E. coli BL21(T7+), pET22b+, purified (Mono-Q, Superdex 200, Superdex 75)
As a reminder, the stoichiometry N is the number of molecules, sites or subunits per partner or assembly. Regarding B1, in data set [1], the “refolding of urea-denatured MDH by 10 µM Cpn60αβ, Cpn20 titrated (0.625–20 µM) with constant 20 µM Cpn10(1); against 51.39% with Cpn20 alone (% of Cpn60αβ with mt-cpn10)” value was found to be 77.8%. Besides, in the data set with Cpn20 mutant G32A, the “refolding of urea-denatured MDH by GroEL with the combination of G32A and Cpn10(1), each inactive alone (% of GroEL with saturating GroES)” value was ~75%; the “refolding of urea-denatured MDH by chloroplast Cpn60αβ with the combination of G32A and Cpn10(1), each inactive alone (% of Cpn60αβ with mt-cpn10)” value is ~40%. The “stoichiometry N” value in data set [2] was determined as 2.

B2: GroES (natural protein, E. coli, UniProt P0A6F9 1-97, looked up)
chain: MNIRPLHDRVIVKRKEVETKSAGGIVLTGSAAAKSTRGEVLAVGNGRILENGEVKPLDVKVGDIVIFNDGYGVKSEKIDNEEVLIMSESDILAIVEA
notes: GroES, the co-chaperonin (Cpn10) of E. coli
With B2, the “stoichiometry N” value in data set [2] stood at 7.

B3: Cpn60α2 (natural protein)
chain: not shown
notes: additional glycine-serine at the N-terminus; Cpn60α2, A. thaliana chloroplast chaperonin α subunit, At2g28000; alanine 46 chosen as the first amino acid of the mature protein; The vector codes for an octa-histidine tag followed by a TEV site
For the molecule B3, the binding result in the data set with Cpn60β3 is “binds”.

B4: Cpn10(2) co-chaperonin of A. thaliana (natural protein, UniProt O80504 40-139, looked up)
chain: IKAISTKWEPTKVVPQADRVLVRLEDLPIKSSGGVLLPKAAVKFERYLTGEIISVGSEVGQQVGPGKRVLFSDVSAYEVDLGTDARHCFCKESDLLALVE
notes: Cpn10(2), A. thaliana chloroplast co-chaperonin, At2g44650
Consider B4, for which the “refolding of urea-denatured MDH by Cpn60αβ, Cpn10(2) titrated on a background of 20 µM G32A; at a 0.25 ratio of [co-chaperonin]/[Cpn60αβ], against 18.06% with Cpn10(2) alone” value in the data set with Cpn20 mutant G32A is 29.1%. For the same molecule, the “stoichiometry N” value in data set [2] is 7. On to B5, for which the binding result in data set [3] is on record as “binds”.

Source of the values: paper PMC4242682, “The Cpn10(1) Co-Chaperonin of A. thaliana Functions Only as a Hetero-Oligomer with Cpn20” (PLoS ONE, 2014).
